Experimental data published in a protein production outcome set (Wang et al. 2014).

Assay: label from the status in PepcDB records

Sequence | protein production
MARSVVVSAEAVYSHEGEYVGDHVLVDEGLVKSISRGEPHVSVGKRVAVKGFLLPPLVDAHLHMRSLGASFRIVNLKGASSPEEVAKRLAAANSPIAVGRGWNEEEFRPGSRLDRRILDSYLGEKPALAVRICGHVAVANSAFIRESGVDKLFPNLVDRERGLLLEDAVSYAVSVAMKTYNNEELLRDAASALASVGVFGVSSMACSEEEVRALSLIGDALEVRVACYLRRGVEPPPKRAGARWSIVGVKLFADGSLGGRTAYLRRPYISGENEGWRGLKLLSSRDIAEEAVSNSHRGLATAVHAIGDAALDEVLEGFSNAISRGVEPGMLRVEHASLAWPNQIDRLASLRVWTVVQPLFRVSDWWLESRVGSDMLQAAYPFASMLRAGVKLALSTDAPVETYDPAETFKAAVGLCSSRLCRESESLTPRETLKLYTLNSALASGGPVAWLGRLRRGAPALFAVANVDVLNSGRKELEKLKFRGLNLAK | failed
MDLSLLKALSEADAIASSEQEVRQILLEEAARLQKEVRFDGLGSVLIRLNESTGPKVMICAHMDEVGFMVRSISREGAIDVLPVGNVRMAARQLQPVRITTREECKIPGLLDGDRQGNDVSAMRVDIGARTYDEVMQAGIRPGDRVTFDTTFQVLPHQRVMGKAFDDRLSCYLLVTLLRELHDAELPAEVWLVASSSEEVGLRGGQTATRAVSPDVAIVLDTACWAKNFDYGAANHRQIGNGPMLVLSDKSLIAPPKLTAWIETVAAEIGVPLQADMFSNGGTDGGAVHLTGTGVPTLVMGPATRHGHCAASIADCRDILQMEQLLSALIQRLTRETVVQLTDFR | not failed
MMNEPQVSFITVCYNGFKDTCELIESLQTHVHSVSYEIIVVDNASREDEATKIKELYSDIVTLRSESNLGFSGGNNLGIRVAKGAYIFLINNDTYVESDGFHYLTERLESQKNIGAVSPKIRFAFPPQNIQFAGFTSLSAITIRNEMTGFGCPDDGTFDTPHTTPYLHGAALMVKREVIEKVGEMPEIFFLYYEEMDWCTQMTNAGYELWYEPRCTVFHKESQSTGQFSKLRTFYMTRNRLLYTRRNRKGAQRLLSILYQSTIAAGKNSLQFAVKGRFDLFAAVWKGVVRSFSVTSPIRLEHHHHHH | failed
MLVNRIISATVAGLVAVVIGFASSVALIYQTVINLGGDASLASSWILTLGLSMGITSIALSFYYRVPILIAWSTPGAALLIANTQNFNLNEAIAGFMFSALLIFLCGITGWFEKLINKLPFQLASAMLGGILVNFGIDVFNQMNKAPLLVIVMFFTYLVCRQLMPKFTMLFVLIISVVLAWQLKLMTFTAFSWQLSEFTYISPEFNMSAVLGIGIPLFLVTMAAQNLPGIAVLKAHNYKAPVSSILSVTGFVNMLAAPFGGYAINLAAITAAICMTKDVDKDPKKRYWAGISGGGFYILMAISAGYLMQAFASLPNALIYSLAGMALFTTINSSIQQALSDDKMSEAAIITFLVTASNLSLWDISSVLWGLIAGSITLMTQSLLNRSNDKLC | failed
MVAPLEIKNSNAFCFFPVSFASSRFPWLLKTLVMILGLATVVFMFRSLALTAEFGTFKPAFPKPGPVDPVLKLLSEEHLRTLFTYSDIWLFPKNQCDCESGKQQMKYKYQNAYNQKDLPAVNARRQAEFEHFQRREGLPRPPPLLASPNLPFGYPVHGVEVMPLHTILIPGLQYEGPDAPVYEVTLKASLGTLNTLADVSDNEVQGRGQRQLSISTRHRKVLNFILQHVTYTSTVYHLHKVDIVSMESKSSVAKFPVTIKHQTVPKLYDPGPERKLRNLVTIATKTFLRPHKFKILLQSIRKYYPDLTVIVTDDSKEPLEIKDDYVEYYPMPFGKGWFAGRNLAISQVTTKYVLWVDDDFLFSNKTKIEVLVDVLEKTELDVVGGSVQGNTFQFRLLLERSENGDCLHQRWGSFQALDGFPGCTLASGVTNFFLAHTEQLRRVGFDPALQRVAHREFFIDGLGSLLVGSCPGVTVDHQTRTPSKDPKLAALEMSYAKYRTNTNSQVQFKLALHYFKNHLYCAT | failed
MMRKLLTALPDGGVSALSGLQDAQTVGRISVAPSGRKFLLLTIVLFLITFATHAQVVDTWRFDNPQQQEKALSIAGQLRCPQCQNQNLLESNAPVAVSMRHQVYSMVAEGKSEAEITAWMTDRYGDFVRYNPPLNEQTLLLWALPCLLLLLVGVVVWRVRKRQHAEEGEQ | failed
MATLPAAETWIDGGGGVGADAVNLTASLAAGAATGAVETGWLQLLDQAGNLSSSPSALGLPVASPAPSQPWANLTNQFVQPSWRIALWSLAYGVVVAVAVLGNLIVIWIILAHKRMRTVTNYFLVNLAFSDASMAAFNTLVNFIYALHSEWYFGANYCRFQNFFPITAVFASIYSMTAIAVDRYMAIIDPLKPRLSATATKIVIGSIWILAFLLAFPQCLYSKTKVMPGRTLCFVQWPEGPKQHFTYHIIVIILVYCFPLLIMGITYTIVGITLWGGEIPGDTCDKYHEQLKAKRKVVKMMIIVVMTFAICWLPYHIYFILTAIYQQLNRWKYIQQVYLASFWLAMSSTMYNPIIYCCLNKRFRAGFKRAFRWCPFIKVSSYDELELKTTRFHPNRQSSMYTVTRMESMTVVFDPNDADTTRSSRKKRATPRDPSFNGCSRRNSKSASATSSFISSPYTSVDEYS | failed
MKFYKKLIECIILLLFFVVFTLFIKYYFKPFLSIVILTILCSPIYNLLSKHKVFGDRINAVLSIIVINVMIFLAIFLIGNFIAQKLNIYLQHYHNVLDINKLPIIGESNVNILLNKINVFVDKLFNADFFKKSAVYTTDGILTYFVSIMSVYFILVDKYDIVNLAEKLFTKNKVHILMKKFSDIKSLLRVETFLVLITTIQTIIGFFVLGIEDCFMLGIICGILDILPYVGTIIIFIPLIIYKMYEKNYVTIFGLIALYIFLQVSRQIMETNFMSSKLKIHPLIILISVYIGIKAFGIIGLFIAPIYVITAKEIILSS | failed
MKRANIVKLIVDKKTHEKLKELAIATAKCWNEVNWLRMQQFKKGERVDFSKTEKDVYEKYKQILKVNTQQVARKNAEDWRSFFSLIEEKKEGKLPRWFKPRPPGYWKDKIGKYKLIIIIRKDRYEVNEEKRIIYLKDFKLSLSFKGKLKWHGEQGRLEIIYNEARRIWYAHIPVEVQNDVKAEGKLKASIDLGIVNLATVYVEDGSWYIFKGGSVLSQYEYYSKRISIVQKTLARHKQRRSRKMKLLYEKRKRFLKHALNSMVRKIMEELKKKGVSKLIIGYPKEISKDHGNKLTVNFWNYGYIIRRFEEVGEELGIEVVEVDEAWTSKSCSLCGEAHHRGRIKRGLYRCPRMGKVINADLNGAINILHIPESLGAGSGGQLPVRDRGNGLKAQPAVYRWSNGVGWVSSPTSYEVMKMKAVNRKPMNRPKGTLAL | failed
MSSFAELLQQGASQAWLYFPSAILLGALHGLEPGHSKTMMAAFIVAIRGTVKQAVLLGLASTLSHTAVVWLVAMAGMYLGQNLNAETTEPYFQLASAAIIITIALWMLWRTWRGEQMWRFEEGDDLQHDYHHHDEMQRIDTGHGRIELSIFEEGVPPRWRLNILTGHAWSAAEMSLLTTRPDGLAQQFRFVDRGDYLESVDEIPEPHEFTARLSLGHAGHSHDYDLEFHEHGHGHGHDHAELEGLELSLEGYQDAHERAHANDIRKRFSNRNVTTGQIILFGLTGGLIPCPAAITVLLLCLQVKEVALGAVLVLCFSIGLAITLVTVGAAAAIGARQASNRWPWLGAVARRAPYLSSLLIIGVGIYVGVHGWIGLNA | failed
MISLRTFLITFLVNIALLGIFWGNRMNFVDVVIFSFFSALFVSLATHILVTSRLRKLREAVARKSRFEDFLNDEITKLAEEVNSVVENSLIQEKETEKLKDIVTGFVHDVKSLVWNEVEDENLQKIIEEFYEFAKLEAGLERLRKEPVNLVELVNDVVEKFPGKVIFKYDDVVEVEADPMKLFRAFYNVIENAVKYSSGPVEVHVKKDRIIVKGPGPEIPYEVRANLFEKKKKSKGTGLGLYLAREFFEMHGFRIAYRREGNHNVFEIYTGYTGMSSVKSERDSR | not failed
VFADKLDITVDQKKIILPYWLSRPVSYGAVIIVSGGETAQWSLLLEQFAKGLARNGWSVVLLNCTKNNSIPWINQLPEVISTLRQNNNKRIVLVHYGDQLNLALEYFSKPQSKMINGLVMLSAYDLNRNLQKVPRLRFPLFDIVGQFDYDMVRQQRKSREEKFKENSYLAIDIPGATHDYQYSQQLLLAFVHGWM | not failed
MKGFAMLGINKLGWIEKERPVAGSYDAIVRPLAVSPCTSDIHTVFEGALGDRKNMILGHEAVGEVVEVGSEVKDFKPGDRVIVPCTTPDWRSLEVQAGFQQHSNGMLAGWKFSNFKDGVFGEYFHVNDADMNLAILPKDMPLENAVMITDMMTSGFHGAELADIQMGSSVVVIGIGAVGLMGIAGAKLRGAGRIIGVGSRPICVEAAKFYGATDILNYKNGHIVDQVMKLTNGEGVDRVIMAGGGSETLSQAVSMVKPGGIISNINYHGSGDALLIPRVEWGCGMAHKTIKGGLCPGGRLMKGFAMLGINKLGWIEKERPVAGSYDAIVRPLAVSPCTSDIHTVFEGALGDRKNMILGHEAVGEVVEVGSEVKDFKPGDRVIVPCTTPDWRSLEVQAGFQQHSNGMLAGWKFSNFKDGVFGEYFHVNDADMNLAILPKDMPLENAVMITDMMTSGFHGAELADIQMGSSVVVIGIGAVGLMGIAGAKLRGAGRIIGVGSRPICVEAAKFYGATDILNYKNGHIVDQVMKLTNGEGVDRVIMAGGGSETLSQAVSMVKPGGIISNINYHGSGDALLIPRVEWGCGMAHKTIKGGLCPGGRLRAEMLRDMVVYNRVDLSKLVTHVYHGFDHIEEALLLMKDKPKDLIKAVVIL | not failed
MESSAINIAIVVVYLLAMLAFGWWGKSRTKNNSDFLVAGRRLGPFLYTGTMAAVVLGGASTVGGVGLGYKFGISGMWLVVAIGSGVLLLSLLFAGTIQKLKIYTVSQMLTLRYGSTATQTSGIVMLAYTLMLCATSTGAYATIFVVLFGWERWLAIAIGGAIVLVYSTIGGMWSITLADQVQFVIKTVGIFFLMLPFALNAAGGLDGIRARVDESFFDIGGIGLQTIITYFVVYTLGLLIGQDIWQRVFTAKTPTVARWGGATAGVYCILYGFAGALIGMAASVALSGVEIAAKDDVYAEVATRLLPIGIGGLVLAAAVAAMMSTASGALIAAATVARADVMPFVASWFGKKVDTSDSDNPEHDVKANRYWVLGLGIVAIIIAISTKDVVAALTIAYDILVGGLLVAIIGGLVWKRGTGIAAAWSMAAGSVITLGTMIILEINAEVPLDGIYANEPIYFGLIASAVVYVVVSLLSKPTDPAVMKAWTDRVAGTRVAEEELTTPAS | failed
MSGEDEQQEQTIAEDLVVTKYKMGGDIANRVLRSLVEASSSGVSVLSLCEKGDAMIMEETGKIFKKEKEMKKGIAFPTSISVNNCVCHFSPLKSDQDYILKEGDLVKIDLGVHVDGFIANVAHTFVVDVAQGTQVTGRKADVIKAAHLCAEAALRLVKPGNQNTQVTEAWNKVAHSFNCTPIEGMLSHQLKQHVIDGEKTIIQNPTDQQKKDHEKAEFEVHEVYAVDVLVSSGEGKAKDAGQRTTIYKRDPSKQYGLKMKTSRAFFSEVERRFDAMPFTLRAFEDEKKARMGVVECAKHELLQPFNVLYEKEGEFVAQFKFTVLLMPNGPMRITSGPFEPDLYKSEMEVQDAELKALLQSSASRKTQKKKKKKASKTAENATSGETLEENEAGD | failed
MKNLHRCKKIFLRVFSRSARRQREPLQDAVLDLHQGAFGGFAPCSAPVQLKRKRPMTKPETTAPTAKAVLPIGLLIAVLAMVAVLLLPLPADLPVAGHRMLAILAFAVVVWISEAVSYEASAIMITALMAFLIGTAPTLQDPSQLYGSSAAIGLALTGFSNSALALVAGALFIAAAMTHTGLDRRIALVTLTRVGTSTRRILIGAIAVTILLSLLVPSATARSACVVPIMMGVIAAFGVDKRSNIAAGLMIVVAQGTSIWNVGIQTAAAQNLLTVGFMDKMLGQRVAWLDWLIAGAPWAVIMSLVLLWLVLKLLPPETDSIPGGKEAVAQSLADIGPMTGPQKRLLTVSVLLLLAWSTEGKLHPFDTTTTTYAGLVILLLPRIGIMTWKDVQSRIPWGTVIVFGVGISLGSALLSTQAGQWLGSQVVAHTGLDQVGPLAVFAILAAFLILIHLGFASATALTSALLPILIAVLQTLPGEFSRLGMTMLLGFVVSYGFILPINAPQNMVCLGTETFNARQFAKVGLLVTLIGYLLMLVFAMTWWKWLGWM | failed
